Assays:
[1] = target: T1, HCV NS3 1073-1081, alanine analogue 1074-Ala (position 2) peptide on HLA-A*02:01 (human); experiment: T cell clone or line
T1 peptide: CANGVCWTV

[2] = target: T2, HCV NS3 (genotype 1a) peptide on HLA-A*02:01 (human); experiment: T cell clone or line
T2 peptide: CINGVCWTV

[3] = target: T3, HCV NS3 peptide on HLA-A*02:01 (human); experiment: cytokine release
T3 peptide: KLVALGINAV

[4] = target: T4, HCV NS3 1073-1081, alanine analogue 1081-Ala (position 9) peptide on HLA-A*02:01 (human); experiment: cytokine release
T4 peptide: CINGVCWTA

[5] = target: T5, HCV NS3 1073 (genotype 5) peptide on HLA-A*02:01 (human); experiment: cytokine release
T5 peptide: CINGVMWTV

[6] = target: T6, HCV NS3 1073-1081, alanine analogue 1078-Ala (position 6) peptide on HLA-A*02:01 (human); experiment: cytokine release
T6 peptide: CINGVAWTV

[7] = target: T7, HCV NS3 1073 (genotype 3) peptide on HLA-A*02:01 (human); experiment: cytokine release
T7 peptide: TIGGVMWTV

[8] = target: T8, HCMV pp65 (pp65 495) peptide on HLA-A*02:01 (human); experiment: cytokine release
T8 peptide: NLVPMVATV

[9] = target: T9, HCV NS3 1073-1081, alanine analogue 1080-Ala (position 8) peptide on HLA-A*02:01 (human); experiment: cytokine release
T9 peptide: CINGVCWAV

[10] = target: T10, HCV NS3 1073-1081, alanine analogue 1073-Ala (position 1) peptide on HLA-A*02:01 (human); experiment: cytokine release
T10 peptide: AINGVCWTV

[11] = target: T11, HCV NS5 (NS5 2221) peptide on HLA-A*02:01 (human); experiment: cytokine release
T11 peptide: SPDADLIEANL

[12] = target: T12, HCV NS3 1073 (genotype 2) peptide on HLA-A*02:01 (human); experiment: cytokine release
T12 peptide: TISGVLWTV

[13] = target: T13, HCV NS3 1073 (genotype 6) peptide on HLA-A*02:01 (human); experiment: cytokine release
T13 peptide: AINGVMWTV

[14] = target: T14, HCV NS3 (genotype 1b) peptide on HLA-A*02:01 (human); experiment: cytokine release
T14 peptide: CVNGVCWTV

[15] = target: T15, HCV NS3 1073 (genotype 4) peptide on HLA-A*02:01 (human); experiment: cytokine release
T15 peptide: AVNGVMWTV

[16] = target: T16, HCV NS5 peptide on HLA-A*02:01 (human); experiment: cytokine release
T16 peptide: VLTDFKTWL

[17] = target: T17, Flu neuraminidase (Flu-NA231) peptide on HLA-A*02:01 (human); experiment: cytokine release
T17 peptide: CVNGSCFTV

[18] = target: T1, HCV NS3 1073-1081, alanine analogue …; experiment: cytokine release
[19] = target: T2, HCV NS3 (genotype 1a) peptide on …; experiment: multimer staining
[20] = target: T18, HCV NS3 (genotype 1a) peptide on HLA-A*02:01 (human/mouse chimera); experiment: cytokine release
T18 peptide: CINGVCWTV

B1: I4G7 alpha chain with I4G7 beta chain2 (TCR, V domains shown)
Valpha: AQSVTQPDARVTVSEGASLQLRCKYSYFGTPYLFWYVQYPRQGLQLLLKYYPGDPVVQGVNGFEAEFSKSNSSFHLRKASVHWSDWAVYFCAVSRDTNTGKLTFGDGTVLTVKP
Vbeta: EAAVTQSPRNKVTVTGGNVTLSCRQTNSHNYMYWYRQDTGHGLRLIHYSYGAGNLRIGDVPDGYKATRTTQEDFFLLLELASPSQTSLYFCASSDYRDSGNTLYFGEGSRLIVV
[1]
  EC50 of peptide: 0.08 µg/mL
[2]
  peptide concentration at which reactive: < 100 ng/mL
[3]
  binding result: no recognition
[4]
  binding result: recognises
[5]
  binding result: no recognition
[6]
  binding result: recognises
[7]
  binding result: no recognition
[8]
  binding result: no recognition
[9]
  binding result: recognises
[10]
  binding result: recognises
[11]
  binding result: no recognition
[12]
  binding result: no recognition
[13]
  binding result: no recognition
[14]
  binding result: recognises
[15]
  binding result: no recognition
[16]
  binding result: no recognition
[17]
  binding result: no recognition

B2: I4F8 (TCR, V domains shown)
Valpha: AQSVTQPDARVTVSEGASLQLRCKYSYFGTPYLFWYVQYPRQGLQLLLKYYPGDPVVQGVNGFEAEFSKSNSSFHLRKASVHWSDWAVYFCAVSNMGYKLTFGTGTSLLVDP
Vbeta: DPKIIQKPKYLVAVTGSEKILICEQYLGHNAMYWYRQSAKKPLEFMFSYSYQKLMDNQTASSRFQPQSSKKNHLDLQITALKPDDSATYFCASSQEMGGALEQYFGPGTRLTVL
[2]
  peptide concentration at which reactive: < 100 ng/mL
[3]
  binding result: no recognition
[4]
  binding result: recognises
[5]
  binding result: no recognition
[6]
  binding result: recognises
[7]
  binding result: no recognition
[8]
  binding result: no recognition
[9]
  binding result: recognises
[10]
  binding result: recognises
[18]
  binding result: recognises
[11]
  binding result: no recognition
[12]
  binding result: no recognition
[13]
  binding result: no recognition
[14]
  binding result: recognises
[15]
  binding result: no recognition
[16]
  binding result: no recognition
[17]
  binding result: no recognition

B3: I4G7 alpha chain with I4G7 beta chain1 (TCR, V domains shown)
Valpha: AQSVTQPDARVTVSEGASLQLRCKYSYFGTPYRIEFSGREFALLFWYVQYPRQGLQLLLKYYPGDPVVQGVNGFEAEFSKSNSSFHLRKASVHWSDWAVYFCAVSRDTNTGKLTFGDGTVLTVKP
Vbeta: EAAVTQSPRNKVAVTGGKVTLSCNQTNNHNNMGELNLAAANSPLYWYRQDTGHGLRLIHYSYVADSTEKGDIPDGYKASRPSQENFSLILELASLSQTAVYFCASSGGLGGHTLYFGAGTRLSVL
[1]
  EC50 of peptide: 0.08 µg/mL
[2]
  peptide concentration at which reactive: < 100 ng/mL
[3]
  binding result: no recognition
[4]
  binding result: recognises
[5]
  binding result: no recognition
[6]
  binding result: recognises
[7]
  binding result: no recognition
[8]
  binding result: no recognition
[9]
  binding result: recognises
[10]
  binding result: recognises
[11]
  binding result: no recognition
[12]
  binding result: no recognition
[13]
  binding result: no recognition
[14]
  binding result: recognises
[15]
  binding result: no recognition
[16]
  binding result: no recognition
[17]
  binding result: no recognition

B4: TCR-69 (TCR, V domains shown)
Valpha: LAKTTQPPSMEAYEGQEVNVSCSHTNIATSEYIYWYRQVPHQGPQFIIQGYKDYVVNEVASLFISADRKLSTLSLPWVSLRDAAVYYCIVTDLGITGNTGKLIFGLGTTLQVQP
Vbeta: EAAVTQSPRNKVAVTGGKVTLSCNQTNNHNNMYWYRQDTGHGLRLIHYSYGAGSTEKGDIPDGYKASRPSQENFSLILELATPSQTSVYFCASGDEGYNSPLYFAAGTRLTVT
[16]
  binding result: recognises

B5: I8A4 (TCR, V domains shown)
Valpha: LAKTTQPPSMEAYEGQEVNVSCSHTNIATSEYIYWYRQVPHQGPQFIIQGYKDYVVNEVASLFISADRKLSTLSLPWVSLRDAAVYYCIVTDMETGGYKVVFGSGTRLLVSP
Vbeta: EAAVTQSPRNKVAVTGGKVTLSCNQTNNHNNMYWYRQDTGHGLRLIHYSYGAGSTEKGDIPDGYKASRPSQENFSLILELATPSQTSVYFCASASTGASSYEQYFGPGTRLTVL
[2]
  EC50 of peptide: ≤ 0.4 µg/mL
[3]
  binding result: no recognition
[5]
  binding result: no recognition
[7]
  binding result: no recognition
[8]
  binding result: no recognition
[10]
  binding result: recognises
[11]
  binding result: no recognition
[12]
  binding result: no recognition
[13]
  binding result: no recognition
[14]
  binding result: recognises
[15]
  binding result: no recognition
[16]
  binding result: no recognition
[17]
  binding result: no recognition

B6: I8H4 (TCR, V domains shown)
Valpha: AQKVTQTQTSISVVEKTTVTMDCVYETRDSSYFLFWYKQTASGEIVFLIRQDSYKKENATVGHYSLNFQKPKSSIGLIITATQIEDSAVYFCAMREITGNTGKLIFGLGTTLQVQP
Vbeta: EAAVTQSPRNKVTVTGGNVTLSCRQTNSHNYMYWYRQDTGHGLRLIHYSYGAGNLRIGDVPDGYKATRTTQEDFFLLLELASPSQTSLYFCASSDALGGEDAEQFFGPGTRLTVL
[19]
  binding result: recognises
[3]
  binding result: no recognition
[4]
  binding result: recognises
[5]
  binding result: no recognition
[6]
  binding result: recognises
[7]
  binding result: no recognition
[8]
  binding result: no recognition
[9]
  binding result: recognises
[10]
  binding result: recognises
[18]
  binding result: recognises
[11]
  binding result: no recognition
[12]
  binding result: no recognition
[13]
  binding result: no recognition
[20]
  binding result: recognises
[14]
  binding result: recognises
[15]
  binding result: no recognition
[16]
  binding result: no recognition
[17]
  binding result: no recognition

B7: TCR-19 (TCR, V domains shown)
Valpha: GEKVEQHQSTLSVREGDSAVINCTYTDTASSYFPWYKQEAGKSLHFVIDIRSNVDRKQSQRLTVLLDKKAKRFSLHITATQPEDSAIYFCAASLITGNTGKLIFGLGTTLQVQP
Vbeta: GGIITQTPKFLIGQEGQKLTLKCQQNFNHDTMYWYRQDSGKGLRLIYYSITENDLQKGDLSEGYDASREKKSSFSLTVTSAQKNEMAVFLCASSLTANTEVFFGKGTRLTVV
[16]
  binding result: recognises
